Molecular target: Rubiscolin-6 (Spinacia oleracea)
Test: [3H]DPDPE displacement radioligand binding

Ki: 1 µM
B1: Delta opioid receptor, P41143 (protein)
chain: MEPAPSAGAELQPPLFANASDAYPSACPSAGANASGPPGARSASSLALAIAITALYSAVCAVGLLGNVLVMFGIVRYTKMKTATNIYIFNLALADALATSTLPFQSAKYLMETWPFGELLCKAVLSIDYYNMFTSIFTLTMMSVDRYIAVCHPVKALDFRTPAKAKLINICIWVLASGVGVPIMVMAVTRPRDGAVVCMLQFPSPSWYWDTVTKICVFLFAFVVPILIITVCYGLMLLRLRSVRLLSGSKEKDRSLRRITRMVLVVVGAFVVCWAPIHIFVIVWTLVDIDRRDPLVVAALHLCIALGYANSSLNPVLYAFLDENFKRCFRQLCRKPCGRPDPSSFSRAREATARERVTACTPSDGPGGGAAA

From publication PMC6421079
